Assay results reported in patent US20260116991A1 (HAINAN SIMCERE ZAIMING PHARMACEUTICAL, published 2026).
Read-outs that look alike come from different tables or passages of the source.

Experiments:
monkey GPC3-His protein [1] = molecular target: T1, monkey GPC3-His protein (monkey); assay: ELISA, monkey GPC3-His coated;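 further: Plate-coated antigen at 1 µg/mL, antibody binding 2 h at 37 °C, detected with HRP-labeled secondary antibody and TMB, absorbance at 450 nm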
T1 construct: Bought recombinant protein; also called monkey GPC3 protein

human GPC3-His protein [2] = molecular target: T2, human GPC3-His protein (human, UniProt P51654 25-559); assay: SPR, antibody captured on Protein A chip, human GPC3-His analyte;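 further: measured at 25 °C flow cell, human GPC3-His injected at five concentrations up to 200 nM, 240 s association, up to 600 s dissociation, double-referenced, fitted to Langmuir 1:1 model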
T2 construct: also called human GPC3 protein; not shown: His tag

monkey GPC3-His protein [3] = molecular target: T1, monkey GPC3-His protein; assay: SPR, antibody captured on Protein A chip, monkey GPC3-His analyte;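 further: run at 25 °C with 240 s association and up to 600 s dissociation, double-referenced, kinetics fitted to a 1:1 Langmuir binding model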
[4] = molecular target: T3, monkey GPC3 on HEK293T-monkey GPC3 cells (monkey); assay: FACS on HEK293T-monkey GPC3 cells
T3 construct: whole, on cells

human GPC3-His protein [5] = molecular target: T4, human GPC3-His protein (human, UniProt P51654 25-559, limits assumed); assay: SPR, antibody captured on Protein A chip, human GPC3-His injected, 1:1 Langmuir model;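 further: flow cell at 25 °C, antigen injected for 240 s at five twofold dilutions starting at 200 nM, dissociation followed up to 600 s, double-referenced sensorgrams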
T4 construct: also called human GPC3 protein; not shown: His tag

[6] = molecular target: T5, monkey GPC3 on HEK293T-monkey GPC3 cells (monkey); assay: FACS on HEK293T-monkey GPC3 cells; remark: listed apart in the source
T5 construct: whole, on cells

Binder	Kd (human GPC3-His protein [5]) [nM]	koff (human GPC3-His protein [5]) [s⁻¹]	kon (human GPC3-His protein [5]) [M⁻¹ s⁻¹]	EC50 [6] [nM]	Max MFI [6] [MFI]	also measured
F4.13.7 (antibody, human IgG1, kappa, V domains shown, Human-murine chimeric antibody) VH: QVQLQQPGAELVKPGASVKLSCKASGYTFTNNWVHWVKQRPGQGLEWTGMIHPDSGSTIYNEKFQSKATLTVDKSSSTAYMQLSSLTSEDSAVYYCARGYYDSSSYYAMDYWGQGTSVTVSS VL: NIQMTQTTSSLSASLGDRVTISCSASQGIFNYLNWYQQKPDGTVKLLIYYTSSLHSGVPSRFSGSGSGTDYSLTISNLEPEDIATYYCQQYSKLPWTFGGGTKLEIKR	–	–	–	–	–	OD450 at 0.0001 nM (monkey GPC3-His protein [1]): 0.05 OD450; OD450 at 0.001 nM (monkey GPC3-His protein [1]): 0.08 OD450; OD450 at 0.01 nM (monkey GPC3-His protein [1]): 0.36 OD450; OD450 at 0.1 nM (monkey GPC3-His protein [1]): 1.55 OD450; OD450 at 1 nM (monkey GPC3-His protein [1]): 2.34 OD450; OD450 at 10 nM (monkey GPC3-His protein [1]): 2.4 OD450; OD450 at 100 nM (monkey GPC3-His protein [1]): 2.44 OD450; Kd (human GPC3-His protein [2]): 32.3 nM; koff (human GPC3-His protein [2]): 0.00156 s⁻¹; kon (human GPC3-His protein [2]): 48400 M⁻¹ s⁻¹; Kd (monkey GPC3-His protein [3]): 31.4 nM; koff (monkey GPC3-His protein [3]): 0.00264 s⁻¹; kon (monkey GPC3-His protein [3]): 84000 M⁻¹ s⁻¹; EC50 [4]: 1.1 nM; Max MFI [4]: 44100 MFI
hAb001H1L1b (antibody, human IgG1, V domains shown, Humanized F2.169.2) VH: EVQLVESGGGLVQPGGSLRLSCAASGFSFNTNAMNWVRQAPGKGLEWVGRIRSKSNNYATYYADSVKDRFTISRDDSKNSLYLQMNSLKTEDTAVYYCVRDGYYVLFAYWGQGTLVTVSS VL: DIVMTQTPLSLPVTPGEPASISCRFSQSIVNSNANTYLEWFLQKPGQSPQLLIYKVSNRFSGVPDRFSGSGSGTDFTLKISRVEAEDVGVYYCFQGSHVPFTFGQGTKLEIK	19.8	0.937	4.74e+07	1.54	32900	–
hAb001H1aL1b (antibody, human IgG1, V domains shown, Humanized F2.169.2) VH: EVQLVESGGGLVQPGGSLRLSCAASGFSFNTNAMNWVRQAPGKGLEWVGRIRSKSNNYATYYADSVKGRFTISRDDSKNSLYLQMNSLKTEDTAVYYCVRDGYYVLFAYWGQGTLVTVSS VL: DIVMTQTPLSLPVTPGEPASISCRFSQSIVNSNANTYLEWFLQKPGQSPQLLIYKVSNRFSGVPDRFSGSGSGTDFTLKISRVEAEDVGVYYCFQGSHVPFTFGQGTKLEIK	109	0.0167	153000	0.96	32600	–

Second part, led by results:

Kd (human GPC3-His protein [5]) [nM]	koff (human GPC3-His protein [5]) [s⁻¹]	kon (human GPC3-His protein [5]) [M⁻¹ s⁻¹]	EC50 [6] [nM]	Max MFI [6] [MFI]	Binder	also measured
1.68	0.000415	246000	1.46	28400	hAb003LH1L1b (antibody, human IgG1, V domains shown, Humanized F2.154.1) VH: EVQLVQSGAEVKKPGSSVKVSCKASGYTFSDYEMHWVRQAPGQGLEWMGTIDPETGNTAYTQKFMDRVTITADKSTSTAYMELSSLRSEDTAVYYCTRGYSFTYWGQGTLVTVSS VL: DIVMTQTPLSLPVTPGEPASISCRSSQNIVHSNRNTYLQWYLQKPGQSPQLLIFKVSNRFSGVPDRFSGSGSGTDFTLKISRVEAEDVGVYYCFQGSHVPFTFGQGTKLEIK	–
7.41	0.00125	168000	1.73	31800	hAb006LH1L1b (antibody, human IgG1, V domains shown, Humanized F3.38.7) VH: EVQLVQSGAEVKKPGSSVKVSCKASGYTFSDYEIHWVRQAPGQGLEWMGAIDPKTGNTAYNQKFMGRVTITADKSTSTAYMELSSLRSEDTAVYYCTRYFSFAYWGQGTLVTVSS VL: DIVMTQTPLSLPVTPGEPASISCRSSQTFVHSNANTYLQWYLQKPGQSPQLLIYKVSNRFSGVPDRFSGSGSGTDFTLKISRVEAEDVGVYYCFQGSHVPYTFGQGTKLEIK	–
1.93	0.000453	234000	1.56	28200	hAb003LH1L1 (antibody, human IgG1, V domains shown, Humanized F2.154.1) VH: EVQLVQSGAEVKKPGSSVKVSCKASGYTFSDYEMHWVRQAPGQGLEWMGTIDPETGNTAYTQKFMDRVTITADKSTSTAYMELSSLRSEDTAVYYCTRGYSFTYWGQGTLVTVSS VL: DIVMTQTPLSLPVTPGEPASISCRSSQNIVHSNGNTYLQWYLQKPGQSPQLLIFKVSNRFSGVPDRFSGSGSGTDFTLKISRVEAEDVGVYYCFQGSHVPFTFGQGTKLEIK	–
2.08	0.000501	240000	0.793	31100	hAb003LH2L1b (antibody, human IgG1, V domains shown, Humanized F2.154.1) VH: EVQLVQSGAEVKKPGSSVKVSCKASGYRFTDYEMHWVRQAPGQGLEWMGTIDPETGNTAYTQKFMDRVTITADKSTSTAYMELSSLRSEDTAVYYCTRGYSFTYWGQGTLVTVSS VL: DIVMTQTPLSLPVTPGEPASISCRSSQNIVHSNRNTYLQWYLQKPGQSPQLLIFKVSNRFSGVPDRFSGSGSGTDFTLKISRVEAEDVGVYYCFQGSHVPFTFGQGTKLEIK	–
